Article PMC6706441, “B1 oligomerization regulates PML nuclear body biogenesis and leukemogenesis” (Nature Communications, 2019)

B1: full-length PML isoform IV, wild type (mammalian two-hybrid fusions) [human (by the printed UniProt code P29590-5)] / full-length PML isoform IV, wild type (mammalian two-hybrid fusions) [human (by the printed UniProt code … (parent)
chain 1: MEPAPARSPRPQQDPARPQEPTMPPPETPSEGRQPSPSPSPTERAPASEEEFQFLRCQQCQAEAKCPKLLPCLHTLCSGCLEASGMQCPICQAPWPLGADTPALDNVFFESLQRRLSVYRQIVDAQAVCTRCKESADFWCFECEQLLCAKCFEAHQWFLKHEARPLAELRNQSVREFLDGTRKTNNIFCSNPNHRTPTLTSIYCRGCSKPLCCSCALLDSSHSELKCDISAEIQQRQEELDAMTQALQEQDSAFGAVHAQMHAAVGQLGRARAETEELIRERVRQVVAHVRAQERELLEAVDARYQRDYEEMASRLGRLDAVLQRIRTGSALVQRMKCYASDQEVLDMHGFLRQALCRLRQEEPQSLQAAVRTDGFDEFKVRLQDLSSCITQGKDAAVSKKASPEAASTPRDPIDVDLPEEAERVKAQVQALGLAEAQPMAVVQSVPGAHPVPVYAFSIKGPSYGEDVSNTTTAQKRKCSQTQCPRKVIKMESEEGKEARLARSSPEQPRPSTSKAVSPPHLDGPPSPRSPVIGSEVFLPNSNHVASGAGEAEERVVVISSSEDSDAENSSSRELDDSSSESSDLQLEGPSTLRVLDENLADPQAEDRPLVFFDLKIDNESGFSWGYPHPFLI
chain 2: B1 chain 1

Variants of: B1
Test: mammalian two-hybrid assay
Conditions: with full-length PML isoform IV, parent: 38, read off a plot, scale: fold change

Variant | response
chain 1 F158E | 2.8
chain 1 I122P V123P | 21
chain 1 W157E | 3.2
